Reference: publication PMC7045587
Entries after “also recorded” stand apart in the source; their conditions may differ.

Experiments:
Conditions in all cases: control: wild type
[1] = residual activity after 200 min at 30-90 °C
[2] = thermal inactivation half-life at 90 °C
activity across pH 3-9 = test: activity across pH 3-9
[3] = Michaelis-Menten kinetics, 60 °C, pH 4
activity at 30-90 °C = test: activity at 30-90 °C
[4] = protein yield after purification from P. pastoris
[5] = DNS reducing-sugar assay, 60 °C
[6] = thermal inactivation half-life at 80 °C

Protein	stability_or_folding ([1]; glycan gained)	stability_or_folding, half_life ([2]; glycan gained)	other: optimal pH of activity (activity across pH 3-9; glycan gained)	enzymatic_activity, kcat_Km ([3]; glycan gained)	other: optimal temperature of activity (activity at 30-90 °C; glycan gained)	expression_or_secretion ([4]; glycan gained)	enzymatic_activity, other: specific activity ([5]; glycan gained)	stability_or_folding, half_life ([6]; glycan gained)	stability_or_folding ([1]; glycan lost)	stability_or_folding, half_life ([2]; glycan lost)	other: optimal pH of activity (activity across pH 3-9; glycan lost)	enzymatic_activity, kcat_Km ([3]; glycan lost)	other: optimal temperature of activity (activity at 30-90 °C; glycan lost)	expression_or_secretion ([4]; glycan lost)	enzymatic_activity, other: specific activity ([5]; glycan lost)	stability_or_folding, half_life ([6]; glycan lost)
CTendo45: L47T (protein) parent chain: MHLSQLALPLLLAAGAHAQGAQGTGRTTRYWDCCKPSCAWPGKSNALQPVQTCNAQDQPLNDGGNTRSGCDSGGSAFMCSNQSPWALNETLSYGWAAVRIAGQSEFNWCCACYELTFTSGPVAGKKMIVQATNTGGDLGSNHFDIAIPGGGVGIFNACTQQYGAPPNGWGERYGGIRSRSECDSFPEALKAGCYWRFDWFLGADNPDVSFKQVACPAAITAKSKCVRQRDVIDQTPTGPEIVPTWTP	increases	increases, 55 vs 35; also recorded: increases, 45 vs 28	no change	increases, 74.65 ± 1.36 vs 62.06 ± 1.25; also recorded: increases, 192.43 ± 1.85 vs 138.46 ± 2.07	no change	no change	increases, 1.36 ± 0.06 vs 1.21 ± 0.08; also recorded: increases, 2.17 ± 0.08 vs 2.07 ± 0.14	increases, 230 vs 150; also recorded: increases, 210 vs 130	–	–	–	–	–	–	–	–
CTendo45: R67S (protein) parent chain: MHLSQLALPLLLAAGAHAQGAQGTGRTTRYWDCCKPSCAWPGKSNALQPVQTCNAQDQPLNDGGNTRSGCDSGGSAFMCSNQSPWALNETLSYGWAAVRIAGQSEFNWCCACYELTFTSGPVAGKKMIVQATNTGGDLGSNHFDIAIPGGGVGIFNACTQQYGAPPNGWGERYGGIRSRSECDSFPEALKAGCYWRFDWFLGADNPDVSFKQVACPAAITAKSKCVRQRDVIDQTPTGPEIVPTWTP	increases	increases, 45 vs 35; also recorded: increases, 35 vs 28	no change	increases, 83.49 ± 1.25 vs 62.06 ± 1.25; also recorded: increases, 198.76 ± 2.17 vs 138.46 ± 2.07	no change	no change	increases, 1.58 ± 0.12 vs 1.21 ± 0.08; also recorded: increases, 2.62 ± 0.13 vs 2.07 ± 0.14	increases, 190 vs 150; also recorded: increases, 160 vs 130	–	–	–	–	–	–	–	–
CTendo45: F143S (protein) parent chain: MHLSQLALPLLLAAGAHAQGAQGTGRTTRYWDCCKPSCAWPGKSNALQPVQTCNAQDQPLNDGGNTRSGCDSGGSAFMCSNQSPWALNETLSYGWAAVRIAGQSEFNWCCACYELTFTSGPVAGKKMIVQATNTGGDLGSNHFDIAIPGGGVGIFNACTQQYGAPPNGWGERYGGIRSRSECDSFPEALKAGCYWRFDWFLGADNPDVSFKQVACPAAITAKSKCVRQRDVIDQTPTGPEIVPTWTP	–	–	no change	–	no change	no change	–	–	–	–	–	–	–	–	–	–
CTendo45: W169S (protein) parent chain: MHLSQLALPLLLAAGAHAQGAQGTGRTTRYWDCCKPSCAWPGKSNALQPVQTCNAQDQPLNDGGNTRSGCDSGGSAFMCSNQSPWALNETLSYGWAAVRIAGQSEFNWCCACYELTFTSGPVAGKKMIVQATNTGGDLGSNHFDIAIPGGGVGIFNACTQQYGAPPNGWGERYGGIRSRSECDSFPEALKAGCYWRFDWFLGADNPDVSFKQVACPAAITAKSKCVRQRDVIDQTPTGPEIVPTWTP	–	–	no change	–	no change	no change	–	–	–	–	–	–	–	–	–	–
CTendo45: F143T (protein) parent chain: MHLSQLALPLLLAAGAHAQGAQGTGRTTRYWDCCKPSCAWPGKSNALQPVQTCNAQDQPLNDGGNTRSGCDSGGSAFMCSNQSPWALNETLSYGWAAVRIAGQSEFNWCCACYELTFTSGPVAGKKMIVQATNTGGDLGSNHFDIAIPGGGVGIFNACTQQYGAPPNGWGERYGGIRSRSECDSFPEALKAGCYWRFDWFLGADNPDVSFKQVACPAAITAKSKCVRQRDVIDQTPTGPEIVPTWTP	–	–	no change	–	no change	no change	–	–	–	–	–	–	–	–	–	–
CTendo45: T90A (protein) parent chain: MHLSQLALPLLLAAGAHAQGAQGTGRTTRYWDCCKPSCAWPGKSNALQPVQTCNAQDQPLNDGGNTRSGCDSGGSAFMCSNQSPWALNETLSYGWAAVRIAGQSEFNWCCACYELTFTSGPVAGKKMIVQATNTGGDLGSNHFDIAIPGGGVGIFNACTQQYGAPPNGWGERYGGIRSRSECDSFPEALKAGCYWRFDWFLGADNPDVSFKQVACPAAITAKSKCVRQRDVIDQTPTGPEIVPTWTP	–	–	–	–	–	–	–	–	increases	increases, 65 vs 35; also recorded: increases, 50 vs 28	no change	increases, 97.54 ± 2.13 vs 62.06 ± 1.25; also recorded: increases, 217.90 ± 2.83 vs 138.46 ± 2.07	no change	no change	increases, 2.24 ± 0.18 vs 1.21 ± 0.08; also recorded: increases, 3.39 ± 0.21 vs 2.07 ± 0.14	increases, 260 vs 150; also recorded: increases, 230 vs 130
CTendo45: G63T (protein) parent chain: MHLSQLALPLLLAAGAHAQGAQGTGRTTRYWDCCKPSCAWPGKSNALQPVQTCNAQDQPLNDGGNTRSGCDSGGSAFMCSNQSPWALNETLSYGWAAVRIAGQSEFNWCCACYELTFTSGPVAGKKMIVQATNTGGDLGSNHFDIAIPGGGVGIFNACTQQYGAPPNGWGERYGGIRSRSECDSFPEALKAGCYWRFDWFLGADNPDVSFKQVACPAAITAKSKCVRQRDVIDQTPTGPEIVPTWTP	decreases	decreases, 25 vs 35; also recorded: decreases, 20 vs 28	no change	–	no change	no change	decreases, 0.91 ± 0.08 vs 1.21 ± 0.08; also recorded: decreases, 1.71 ± 0.11 vs 2.07 ± 0.14	decreases, 130 vs 150; also recorded: decreases, 110 vs 130	–	–	–	–	–	–	–	–
CTendo45: Q56T (protein) parent chain: MHLSQLALPLLLAAGAHAQGAQGTGRTTRYWDCCKPSCAWPGKSNALQPVQTCNAQDQPLNDGGNTRSGCDSGGSAFMCSNQSPWALNETLSYGWAAVRIAGQSEFNWCCACYELTFTSGPVAGKKMIVQATNTGGDLGSNHFDIAIPGGGVGIFNACTQQYGAPPNGWGERYGGIRSRSECDSFPEALKAGCYWRFDWFLGADNPDVSFKQVACPAAITAKSKCVRQRDVIDQTPTGPEIVPTWTP	decreases	decreases, 20 vs 35; also recorded: decreases, 15 vs 28	no change	increases, 70.67 ± 1.74 vs 62.06 ± 1.25; also recorded: increases, 177.29 ± 1.47 vs 138.46 ± 2.07	no change	no change	increases, 1.28 ± 0.10 vs 1.21 ± 0.08; also recorded: no change, 2.09 ± 0.15 vs 2.07 ± 0.14	decreases, 110 vs 150; also recorded: decreases, 100 vs 130	–	–	–	–	–	–	–	–
